Results published in patent US20220177577A1.

B1: CK6-SET0207 (antibody, V domains shown)
VH: QVQLVQSGAAVKKPGESLKISCKGSGYRFTSYWIGWVRQMPGKGLEWMGIIYPGDSDTRYSPSFQGQVTISAGKSISTAYLQWSSLKASDTAMYYCARHGRGYNGYEGAFDIWGQGTMVTVSS
VL: AIQLTQSPSSLSASVGDRVTITCRASQGISSALAWYQQKPGKAPKLLIYDASSLESGVPSRFSGSGSGTDFTLTISSLQPEDFATYYCQQFNSYPLTFGGGTKVEIK
modifications: here or on the partner: SET0207 payload ('Non-cleavable natural') conjugated, Fc modification D265C H435A, DAR 2.0
B2: CK6 S239C-D4 (antibody, V domains shown)
VH: B1 VH
VL: B1 VL
modifications: here or on the partner: calicheamicin (D4) conjugated, Fc modification S239C, DAR 1.72
B3: CK6 S239C-DM (antibody, V domains shown)
VH: B1 VH
VL: B1 VL
modifications: here or on the partner: duocarmycin (DM) conjugated, Fc modification S239C, DAR 1.65
B4: CK6 S239C-PBD (antibody, V domains shown)
VH: B1 VH
VL: B1 VL
modifications: here or on the partner: PBD (DNA cross linker) conjugated, Fc modification S239C, DAR 1.7
B5: CK6 S239C-PNU (antibody, V domains shown)
VH: B1 VH
VL: B1 VL
modifications: here or on the partner: PNU (DNA topoisomerase I/II inhibitor) conjugated, Fc modification S239C (printed S2390 in Table 4), DAR 1.4

Biological target: CD117 on Kasumi-1 cells and on primary human CD34+ bone marrow cells (human), P10721
Assay: cell-based or functional assay

Sequence of CD117 on Kasumi-1 cells and on primary human CD34+ bone marrow cells (human), P10721 (P10721 26-976): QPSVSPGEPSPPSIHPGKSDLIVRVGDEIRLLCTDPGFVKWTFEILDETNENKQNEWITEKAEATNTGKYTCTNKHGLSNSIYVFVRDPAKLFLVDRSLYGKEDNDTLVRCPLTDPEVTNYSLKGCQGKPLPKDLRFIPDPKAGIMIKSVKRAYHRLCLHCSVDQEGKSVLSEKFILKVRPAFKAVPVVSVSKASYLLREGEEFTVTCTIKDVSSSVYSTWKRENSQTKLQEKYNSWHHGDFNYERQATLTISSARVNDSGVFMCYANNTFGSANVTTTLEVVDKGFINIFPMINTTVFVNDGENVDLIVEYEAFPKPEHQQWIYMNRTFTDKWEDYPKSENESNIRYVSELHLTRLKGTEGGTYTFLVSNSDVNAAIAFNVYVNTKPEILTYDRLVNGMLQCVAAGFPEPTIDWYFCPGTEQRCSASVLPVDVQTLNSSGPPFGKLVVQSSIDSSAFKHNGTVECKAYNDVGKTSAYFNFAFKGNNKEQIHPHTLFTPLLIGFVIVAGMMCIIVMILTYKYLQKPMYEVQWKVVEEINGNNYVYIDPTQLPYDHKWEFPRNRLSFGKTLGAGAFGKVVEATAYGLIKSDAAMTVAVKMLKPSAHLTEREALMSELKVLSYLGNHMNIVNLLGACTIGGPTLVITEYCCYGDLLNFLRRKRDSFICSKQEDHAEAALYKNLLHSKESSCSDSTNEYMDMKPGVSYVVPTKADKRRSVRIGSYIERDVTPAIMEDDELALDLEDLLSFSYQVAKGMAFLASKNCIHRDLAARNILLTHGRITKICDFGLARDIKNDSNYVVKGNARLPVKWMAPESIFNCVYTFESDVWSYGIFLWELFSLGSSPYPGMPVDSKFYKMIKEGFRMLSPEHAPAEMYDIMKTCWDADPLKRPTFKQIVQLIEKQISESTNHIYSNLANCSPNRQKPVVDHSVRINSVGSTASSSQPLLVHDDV

Row | Binder | % Efficacy, in vitro Kasumi cell killing assay | % Efficacy, in vitro hCD34 cell killing assay
1 | B1 | 0% | 9.18%
2 | B2 | 0% | 52.3%
3 | B3 | 0% | 66.2%
4 | B4 | 60.7% | 97.3%
5 | B5 | 85.7% | 74.4%
